Laboratory results as given in US20150184159A1, “USE OF COX-3 BINDING MOLECULES FOR MODULATING AUTOPHAGY” (priority 2013, published 2015).

T1: canine COX-3 (Canis lupus familiaris, UniProt Q8HZR1)
T1 sequence (Q8HZR1 1-633 isoform Q8HZR1-2): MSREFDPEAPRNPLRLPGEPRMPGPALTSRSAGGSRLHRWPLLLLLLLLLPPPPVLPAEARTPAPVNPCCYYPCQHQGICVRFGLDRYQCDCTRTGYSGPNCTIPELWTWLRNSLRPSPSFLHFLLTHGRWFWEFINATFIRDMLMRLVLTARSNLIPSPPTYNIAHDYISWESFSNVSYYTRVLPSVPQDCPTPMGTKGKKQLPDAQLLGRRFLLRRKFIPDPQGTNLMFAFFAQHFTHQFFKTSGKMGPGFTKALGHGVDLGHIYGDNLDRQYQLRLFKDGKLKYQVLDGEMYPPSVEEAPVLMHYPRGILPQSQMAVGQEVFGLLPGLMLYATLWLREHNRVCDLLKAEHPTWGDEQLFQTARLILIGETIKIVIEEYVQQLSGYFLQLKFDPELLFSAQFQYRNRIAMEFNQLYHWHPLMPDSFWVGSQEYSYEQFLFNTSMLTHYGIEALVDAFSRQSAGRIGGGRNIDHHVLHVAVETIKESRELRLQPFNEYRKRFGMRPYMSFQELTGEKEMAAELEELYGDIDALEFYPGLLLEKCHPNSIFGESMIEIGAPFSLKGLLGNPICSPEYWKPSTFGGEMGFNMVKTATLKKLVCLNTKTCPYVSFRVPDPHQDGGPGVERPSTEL


Assays:
canine COX-3 = biological target: T1, canine COX-3; settings: cited from earlier work
[1] = biological target: C-terminal RFP labeled ATG9
[2] = tested on: encephalomyocarditis virus (EMCV); assay: EMCV replication in transfected CHO cells, plaque-forming assay; type: cell-based; settings: compared to Empty vector
Source text: The rCOX constructs being related to ancient unicellular COX and evidence showing their involvement in the formation of innate immune responsive autophagic structures. EMCV is a positive strand RNA picornavirus implicated in human febrile illness. Also, the mTOR small molecule inhibitor rapamycin is shown to stimulate protein synthesis of EMCV proteins (Ref) and that autophagy specifically is shown to promote EMCV viral replication. We infected rCOX or/and cNuc transfected/co-transfected CHO cells with EMCV to determine their influence in viral replication. The media was collected and plaque forming assays were then performed and plaques were counted compared to Empty vector plaque counts.
CHO cells were seeded to the night before infection to complete confluence. Cells were washed twice with DMEM F/12 media before infection. Virus were placed on top of cells and allowed to absorb for 1 hour angling the cells every 10 minutes to ensure cells were fully covered. After adsorption the media was remove and cells washed twice with DMEM F/12 media. Agar at 2% in PBS was melted and mixed with warm DMEM/F12 with 20% FBS and then laid on top of the cells. The virus was allowed to replicate for 36 hours and then 5 mg/mL of MTT in PBS was added to visualize the cells. Plaques were counted using light microscope.

| Molecule | co-localisation by confocal microscopy (Pearson coefficient) (Pearson coefficient) [1] | also measured |
| --- | --- | --- |
| CC(=O)Nc1ccc(O)cc1 [acetaminophen] | – | effect on canine COX-3 (canine COX-3): specifically inhibited |
| FLAG tagged rc44 (translationally recoded rat COX-3 44 kD protein) (from UniProt Q63921) (enzyme) | 0.928 | – |
| FLAG tagged rc50 (translationally recoded rat COX-3 50 kD protein) (from UniProt Q63921) (enzyme) | 0.954 | – |
| FLAG tagged rc57 (translationally recoded rat COX-3 57 kD protein) (from UniProt Q63921) (enzyme) | 0.973 | – |
| r57: translationally recoded 57 kD rat COX-3 protein, expressed by transfection in CHO cells (protein) MRLVITVRSNLIPSPPTYNTAHDYISWESFSNVSYYTRILPSVPKDCPTPMGTKGKKQLPDIHLLAQRLLLRREFIPGPQGTNVLFAFFAQHFTHQFFKTSGKMGPGFTKALGHGVDLGHIYGDSLERQYHLRLFKDGKLKYQVLDGEVYPPSVEQASVLMRYPPGVPPEKQMAVGQEVFGLLPGLMLFSTIWLREHNRVCDLLKEEHPTWDDEQLFQTTRLILIGETIKIIIEEYVQHLSGYFLQLKFDPELLFRAQFQYRNRIALEFNHLYHWHPLMPDSFQVGSQEYSYEQFLFNTSMLVDYGVEALVDAFSRQRAGRIGGGRNFDYHVLHVAEDVIKESREMRLQSFNEYRKRFGLKPYTSFQEFTGEKEMAAELEELYGDIDALEFYPGLMLEKCQPNSLFGESMIEMGAPFSLKGLLGNPICSPEYWKPSTFGGDVGFNIVNTASLKKLVCLNTKTCPYVSFRVPDYPGDDGSVFVRPSTEL | – | inhibition of virion production [2]: 40% |
| r44: translationally recoded 44 kD rat COX-3 protein, expressed by transfection in CHO cells (protein) MGPGFTKALGHGVDLGHIYGDSLERQYHLRLFKDGKLKYQVLDGEVYPPSVEQASVLMRYPPGVPPEKQMAVGQEVFGLLPGLMLFSTIWLREHNRVCDLLKEEHPTWDDEQLFQTTRLILIGETIKIIIEEYVQHLSGYFLQLKFDPELLFRAQFQYRNRIALEFNHLYHWHPLMPDSFQVGSQEYSYEQFLFNTSMLVDYGVEALVDAFSRQRAGRIGGGRNFDYHVLHVAEDVIKESREMRLQSFNEYRKRFGLKPYTSFQEFTGEKEMAAELEELYGDIDALEFYPGLMLEKCQPNSLFGESMIEMGAPFSLKGLLGNPICSPEYWKPSTFGGDVGFNIVNTASLKKLVCLNTKTCPYVSFRVPDYPGDDGSVFVRPSTEL | – | number of EMCV virions [2]: doubled |
